B1: Azoarcus group I ribozyme (parent)
chain: GUGCCUUGCGCCGGGAAACCACGCAAGGGAUGGUGUCAAAUUCGGCGAAACCUAAGCGCCCGCCCGGGCGUAUGGCAACGCCGAGCCAAGCUUCGGCGCCUGCGCCGAUGAAGGUGUAGAGACUAGACGGCACCCACCUAAGGCAAACGCUAUGGUGAAGGCAUAGUCCAGGGAGUGGCGAAAGUCACACAAACCGG

Variants of: B1
Experiment: reverse-splicing fitness (ratio to wild type); higher = more active; in vitro selection; Mg2+ level not given
How it was run: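 An in vitro group I ribozyme library with randomized positions was T7-transcribed and gel-purified. In triplicate, 10 pmol RNA in EPPS pH 7.5 was reacted with 50 pmoles of a 30-nt RNA substrate for 1 h at 37 °C across several added MgCl2 levels (1–48 mM), then stopped with EDTA. Products were reverse transcribed from a substrate-complementary primer, PCR-amplified and sequenced (HiSeq 4000). Fitness is a variant's read proportion after selection over that before, normalised to wild type.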

Going from A111C A145G C150A to A111C A145G C150G, the reverse-splicing fitness falls from 0.31 to 0.212.

First: A111C A145U C150G C169U U176C
Second: A111C A145U C150G C169U U176G
The reverse-splicing fitness of the first is higher: 0.0134 for the first, 0.00683 for the second.

First: A111C A145U C150G C169U U176A
Second: A111C A145G U176G
The reverse-splicing fitness of the first is lower: 0.0095 for the first, 0.185 for the second.

Compared with A111C A145G U176A, A111C A145G U176C is lower in reverse-splicing fitness: 0.432 for the first, 0.401 for the second.

Going from A111G A120C A145G C150G C169G U176A to A111G A120C A145G C150G C169G U176C, the reverse-splicing fitness falls from 0.00741 to 0.00529.

First: A111G A120C A145G C150G C169G U176G
Second: A111C A145G C150A U176A
The reverse-splicing fitness of the first is lower: 0.00503 for the first, 0.146 for the second.

Going from A111C A145G C150A U176G to A111C A145G C150A U176C, the reverse-splicing fitness rises from 0.058 to 0.168.

First: A111C A145G C150A C169U
Second: A111C A145G C150A C169G
The reverse-splicing fitness of the first is higher: 0.0232 for the first, 0.0154 for the second.

Compared with A111C A145G C150A C169A, A111C A145U C150A C169A U176A is higher in reverse-splicing fitness: 0.0128 for the first, 0.0138 for the second.

Going from A111C A145U C150A C169A U176C to A111C A145U C150A C169A U176G, the reverse-splicing fitness falls from 0.0151 to 0.00755.

Compared with A111C A145U, A111C A145G is lower in reverse-splicing fitness: 0.839 for the first, 0.83 for the second.

First: A111C A145G C150U U176A
Second: A111C A145G C150U U176G
The reverse-splicing fitness of the first is higher: 0.313 for the first, 0.135 for the second.

Compared with A111C A145G C150U U176C, A111G A120C A145G C169G U176A is lower in reverse-splicing fitness: 0.404 for the first, 0.019 for the second.

Compared with A111G A120C A145G C169G U176C, A111G A120C A145G C169G U176G is lower in reverse-splicing fitness: 0.0194 for the first, 0.00387 for the second.

Going from A111G A120C A145C C169U U176A to A111G A120C A145C C169U U176C, the reverse-splicing fitness falls from 0.0611 to 0.061.

Going from A111G A120C A145C C169U U176G to A111C C150A C169U U176A, the reverse-splicing fitness rises from 0.00718 to 0.0226.

Going from A111C C150A C169U U176G to A111C C150A C169U U176C, the reverse-splicing fitness rises from 0.00825 to 0.0184.

First: A111G A120C A145C C150A C169U
Second: A111G A120C A145C C150A C169G
The reverse-splicing fitness of the first is higher: 0.0193 for the first, 0.00815 for the second.

First: A111G A120C A145C C150A C169A
Second: A111G A120C A145U C150A C169A
The reverse-splicing fitness of the first is lower: 0.00705 for the first, 0.00758 for the second.

First: A111G A120C A145U C150A C169G
Second: A111C C150A U176G
The reverse-splicing fitness of the first is lower: 0.00748 for the first, 0.0531 for the second.

Going from A111C C150A U176A to A111C C150A U176C, the reverse-splicing fitness rises from 0.12 to 0.147.

Compared with A111C A145G C169A, A111C A145G C169G is higher in reverse-splicing fitness: 0.0355 for the first, 0.0737 for the second.

Going from A111C A145G C169U to A111G A120C A145C C150G U176G, the reverse-splicing fitness falls from 0.126 to 0.00421.

Going from A111G A120C A145C C150G U176C to A111G A120C A145C C150G U176A, the reverse-splicing fitness falls from 0.0508 to 0.0148.

First: A111C A145U C150U C169U U176A
Second: A111C A145U C150U C169U U176C
The reverse-splicing fitness of the first is higher: 0.0264 for the first, 0.0241 for the second.

First: A111C A145U C150U C169U U176G
Second: A111C A145G C150U C169A U176A
The reverse-splicing fitness of the first is lower: 0.00764 for the first, 0.0141 for the second.

Going from A111C A145G C150U C169A U176C to A111C A145G C150U C169A U176G, the reverse-splicing fitness falls from 0.0152 to 0.00725.

Compared with A111C A145U C150G U176A, A111C A145U C150G U176C is higher in reverse-splicing fitness: 0.0925 for the first, 0.119 for the second.

Going from A111C A145U C150G U176G to A111C C169A U176C, the reverse-splicing fitness rises from 0.022 to 0.0285.

Compared with A111C C169A U176G, A111C C169A U176A is higher in reverse-splicing fitness: 0.00548 for the first, 0.0188 for the second.

Going from A111G A120C A145U to A111G A120C A145G, the reverse-splicing fitness falls from 0.745 to 0.688.

First: A111G A120C A145C
Second: A111C C150A C169A
The reverse-splicing fitness of the first is higher: 0.653 for the first, 0.0113 for the second.

Compared with A111C C150A C169U, A111C C150A C169G is lower in reverse-splicing fitness: 0.019 for the first, 0.0124 for the second.

First: A111C A145U C150U C169A U176A
Second: A111C A145U C150U C169A U176G
The reverse-splicing fitness of the first is higher: 0.0122 for the first, 0.00758 for the second.

Going from A111C A145U C150U C169A U176C to A111C A145U C150A C169A, the reverse-splicing fitness falls from 0.0129 to 0.0106.

Compared with A111C A145U C150A C169G, A111C A145U C150A C169U is higher in reverse-splicing fitness: 0.0113 for the first, 0.0179 for the second.

First: A111C A145U C150G
Second: A111C A145U C150A
The reverse-splicing fitness of the first is lower: 0.219 for the first, 0.286 for the second.

Compared with A111C A145U C150U, A111G A120C A145G C169A U176A is lower in reverse-splicing fitness: 0.731 for the first, 0.0173 for the second.

First: A111G A120C A145G C169A U176C
Second: A111G A120C A145G C169A U176G
The reverse-splicing fitness of the first is higher: 0.0197 for the first, 0.00366 for the second.

First: A111C C150U C169U U176G
Second: A111C C150U C169U U176A
The reverse-splicing fitness of the first is lower: 0.00793 for the first, 0.0241 for the second.

Going from A111C C150U C169U U176C to A111G A120C A145G C150A, the reverse-splicing fitness rises from 0.0245 to 0.166.

Compared with A111G A120C A145G C150G, A111G A120C A145G C150U is higher in reverse-splicing fitness: 0.0893 for the first, 0.582 for the second.

Source: the RNAGym collection of RNA variant scans (doi:10.1093/molbev/msab373)
